Laboratory results reported in publication PMC5014551 (2016).

B1: Bol1-Strep [S. cerevisiae] / dihydroxyacid dehydratase (Ilv3) [S. cerevisiae (endogenous in yeast mitochondria)] (parent complex)
chain 1: MFKRAMSTDGPVARTILKRLECGFPDYKNFAFGLYNDSHKHKGHAGVQGNVSAETHFRIEMVSKKFEGLKLPQRHRMVYSLLQDEMAQANGIHALQLSLKTPQEYESKAK
chain 2: not shown
B2: Bol1-Strep [S. cerevisiae] / Aco2 [S. cerevisiae (endogenous in yeast mitochondria)] (parent complex)
chain 1: B1 chain 1
chain 2: ATHANMFPSVSKNFQTKVPPYAKLLTNLDKIKQITNNAPLTLAEKILYSHLCDPEESITSSDLSTIRGNKYLKLNPDRVAMQDASAQMALLQFMTTGLNQTSVPASIHCDHLIVGKDGETKDLPSSIATNQEVFDFLESCAKRYGIQFWGPGSGIIHQIVLENFSAPGLMMLGTDSHTPNAGGLGAIAIGVGGADAVDALTGTPWELKAPKILGVKLTGKLNGWSTPKDVITKLAGLLTVRGGTGYIVEYFGEGVSTLSCTGMATICNMGAEIGATTSTFPYQEAHKRYLQATNRAEVAEAADVALNKFNFLRADKDAQYDKVIEIDLSAIEPHVNGPFTPDLSTPISQYAEKSLKENWPQKVSAGLIGSCTNSSYQDMSRVVDLVKQASKAGLKPRIPFFVTPGSEQIRATLERDGIIDIFQENGAKVLANACGPCIGQWNREDVSKTSKETNTIFTSFNRNFRARNDGNRNTMNFLTSPEIVTAMSYSGDAQFNPLTDSIKLPNGKDFKFQPPKGDELPKRGFEHGRDKFYPEMDPKPDSNVEIKVDPNSDRLQLLEPFKPWNGKELKTNVLLKVEGKCTTDHISAAGVWLKYKGHLENISYNTLIGAQNKETGEVNKAYDLDGTEYDIPGLMMKWKSDGRPWTVIAEHNYGEGSAREHAALSPRFLGGEILLVKSFARIHETNLKKQGVLPLTFANESDYDKISSGDVLETLNLVDMIAKDGNNGGEIDVKITKPNGESFTIKAKHTMSKDQIDFFKAGSAINYIGNIRRNE
B3: Bol1-Strep [S. cerevisiae] / Lys4 [S. cerevisiae (endogenous in yeast mitochondria)] (parent complex)
chain 1: B1 chain 1
chain 2: LKGQNLTEKIVQSYAVNLPEGKVVHSGDYVSIKPAHCMSHDNSWPVALKFMGLGATKIKNPSQIVTTLDHDIQNKSEKNLTKYKNIENFAKKHHIDHYPAGRGIGHQIMIEEGYAFPLNMTVASDSHSNTYGGLGSLGTPIVRTDAAAIWATGQTWWQIPPVAQVELKGQLPQGVSGKDIIVALCGLFNNDQVLNHAIEFTGDSLNALPIDHRLTIANMTTEWGALSGLFPVDKTLIDWYKNRLQKLGTNNHPRINPKTIRALEEKAKIPKADKDAHYAKKLIIDLATLTHYVSGPNSVKVSNTVQDLSQQDIKINKAYLVSCTNSRLSDLQSAADVVCPTGDLNKVNKVAPGVEFYVAAASSEIEADARKSGAWEKLLKAGCIPLPSGCGPCIGLGAGLLEPGEVGISATNRNFKGRMGSKDALAYLASPAVVAASAVLGKISSPAEVLSTSEIPFSGVKTEIIENPVVEEEVNAQTEAPKQSVEILEGFPREFSGELVLCDADNINTDGIYPGKYTYQDDVPKEKMAQVCMENYDAEFRTKVHPGDIVVSGFNFGTGSSREQAATALLAKGINLVVSGSFGNIFSRNSINNALLTLEIPALIKKLREKYQGAPKELTRRTGWFLKWDVADAKVVVTEGSLDGPVILEQKVGELGKNLQEIIVKGGLEGWVKSQL
B4: Bol1-Strep [S. cerevisiae] / Lip5 [S. cerevisiae (endogenous in yeast mitochondria)] (parent complex)
chain 1: B1 chain 1
chain 2: SSTIRCGTSATRPIRSNALNTDSDNASVRVPVGNSTEVENATSQLTGTSGKRRKGNRKRITEFKDALNLGPSFADFVSGKASKMILDPLEKARQNTEEAKKLPRWLKVPIPKGTNYHKLKGDVKELGLSTVCEEARCPNIGECWGGKDKSKATATIMLLGDTCTRGCRFCSVKTNRTPSKPDPMEPENTAEAIKRWGLGYVVLTTVDRDDLVDGGANHLAETVRKIKQKAPNTLVETLSGDFRGDLKMVDIMAQCGLDVYAHNLETVESLTPHVRDRRATYRQSLSVLERAKATVPSLITKTSIMLGLGETDEQITQTLKDLRNIQCDVVTFGQYMRPTKRHMKVVEYVKPEKFDYWKERALEMGFLYCASGPLVRSSYKAGEAFIENVLKKRNMK
B5: Bol1-Strep [S. cerevisiae] / Bio2 [S. cerevisiae (endogenous in yeast mitochondria)] (parent complex)
chain 1: B1 chain 1
chain 2: TKYATNAAVKSTTASSEASTLGALQYALSLDEPSHSWTKSQLKEIYHTPLLELTHAAQLQHRKWHDPTKVQLCTLMNIKSGGCSEDCKYCAQSSRNDTGLKAEKMVKVDEVIKEAEEAKRNGSTRFCLGAAWRDMKGRKSAMKRIQEMVTKVNDMGLETCVTLGMVDQDQAKQLKDAGLTAYNHNIDTSREHYSKVITTRTYDDRLQTIKNVQESGIKACTGGILGLGESEDDHIGFIYTLSNMSPHPESLPINRLVAIKGTPMAEELADPKSKKLQFDEILRTIATARIVMPKAIIRLAAGRYTMKETEQFVCFMAGCNSIFTGKKMLTTMCNGWDEDKAMLAKWGLQPMEAFKYDRS
B6: Bol1-Strep [S. cerevisiae] / Aco1 [S. cerevisiae (endogenous in yeast mitochondria)] (parent complex)
chain 1: B1 chain 1
chain 2: ATVSNLTRDSKVNQNLLEDHSFINYKQNVETLDIVRKRLNRPFTYAEKILYGHLDDPHGQDIQRGVSYLKLRPDRVACQDATAQMAILQFMSAGLPQVAKPVTVHCDHLIQAQVGGEKDLKRAIDLNKEVYDFLASATAKYNMGFWKPGSGIIHQIVLENYAFPGALIIGTDSHTPNAGGLGQLAIGVGGADAVDVMAGRPWELKAPKILGVKLTGKMNGWTSPKDIILKLAGITTVKGGTGKIVEYFGDGVDTFSATGMGTICNMGAEIGATTSVFPFNKSMIEYLEATGRGKIADFAKLYHKDLLSADKDAEYDEVVEIDLNTLEPYINGPFTPDLATPVSKMKEVAVANNWPLDVRVGLIGSCTNSSYEDMSRSASIVKDAAAHGLKSKTIFTVTPGSEQIRATIERDGQLETFKEFGGIVLANACGPCIGQWDRRDIKKGDKNTIVSSYNRNFTSRNDGNPQTHAFVASPELVTAFAIAGDLRFNPLTDKLKDKDGNEFMLKPPHGDGLPQRGYDAGENTYQAPPADRSTVEVKVSPTSDRLQLLKPFKPWDGKDAKDMPILIKAVGKTTTDHISMAGPWLKYRGHLENISNNYMIGAINAENKKANCVKNVYTGEYKGVPDTARDYRDQGIKWVVIGDENFGEGSSREHAALEPRFLGGFAIITKSFARIHETNLKKQGLLPLNFKNPADYDKINPDDRIDILGLAELAPGKPVTMRVHPKNGKPWDAVLTHTFNDEQIEWFKYGSALNKIKADEKK
B7: Bol1-Strep [S. cerevisiae] / Sdh2 [S. cerevisiae (endogenous in yeast mitochondria)] (parent complex)
chain 1: B1 chain 1
chain 2: TATTAAATHTPRLKTFKVYRWNPDEPSAKPHLQSYQVDLNDCGPMVLDALLKIKDEQDSTLTFRRSCREGICGSCAMNIGGRNTLACICKIDQNESKQLKIYPLPHMFIVKDLVPDLTNFYQQYKSIQPYLQRSSFPKDGTEVLQSIEDRKKLDGLYECILCACCSTSCPSYWWNQEQYLGPAVLMQAYRWLIDSRDQATKTRKAMLNNSMSLYRCHTIMNCTRTCPKGLNPGLAIAEIKKSLAFA
B8: Bol1-Strep [S. cerevisiae] / Isa2 [S. cerevisiae] (parent complex)
chain 1: B1 chain 1
chain 2: MQAKLLFTRLNFRRPSTTLRQFPLTCFLFHSKAFYSDLVTKEPLITPKRIINKTPGLNLSISERASNRLAEIYRNSKENLRISVESGGCHGFQYNLTLEPATKPDIKNDVKDKEFSDDLDDDDSKDIIYVLPEDKGRVIIDSKSLNILNNTTLTYTNELIGSSFKIINGSLKSSCGCGSSFDIEN
B9: Bol3-Strep [S. cerevisiae] / dihydroxyacid dehydratase (Ilv3) [S. cerevisiae (endogenous in yeast mitochondria)] (parent complex)
chain 1: MKLPQTMLRSISVKHVRWPRILTGSKLWYSTQMAMTPEEKMITDKLQQELEPEVCKVQDVSGGCGSMFAINITSKKFNGLSLIKQHQLVNRILRDDISRWHGLQLTTKKSTGKGPASS
chain 2: not shown

Variants of: B1
Assay: Strep-tag affinity purification with MS proteomics (spectral counts); parent: 4; read off a plot

screen value | Variant
~0% | chain 1 H93C

Variants of: B2
Assay: Strep-tag affinity purification with MS proteomics (spectral counts); parent: 0; read off a plot

screen value | Variant
~0% | chain 1 MFKRAMSTDGPVARTILKRLECGFPDYKNFAFGLYNDSHKHKGHAGVQGNVSAETHFRIEMVSKKFEGLKLPQRHRMVYSLLQDEMAQANGICALQLSLKTPQEYESKAK [chain 1 H93C]

Variants of: B3
Assay: as above

screen value | Variant
~0% | chain 1 MFKRAMSTDGPVARTILKRLECGFPDYKNFAFGLYNDSHKHKGHAGVQGNVSAETHFRIEMVSKKFEGLKLPQRHRMVYSLLQDEMAQANGICALQLSLKTPQEYESKAK [chain 1 H93C]

Variants of: B4
Assay: as above

screen value | Variant
~0% | chain 1 MFKRAMSTDGPVARTILKRLECGFPDYKNFAFGLYNDSHKHKGHAGVQGNVSAETHFRIEMVSKKFEGLKLPQRHRMVYSLLQDEMAQANGICALQLSLKTPQEYESKAK [chain 1 H93C]

Variants of: B5
Assay: as above

screen value | Variant
~0% | chain 1 MFKRAMSTDGPVARTILKRLECGFPDYKNFAFGLYNDSHKHKGHAGVQGNVSAETHFRIEMVSKKFEGLKLPQRHRMVYSLLQDEMAQANGICALQLSLKTPQEYESKAK [chain 1 H93C]

Variants of: B6
Assay: Strep-tag affinity purification with MS proteomics (spectral counts); parent: 3.5; read off a plot

screen value | Variant
~1.5% | chain 1 MFKRAMSTDGPVARTILKRLECGFPDYKNFAFGLYNDSHKHKGHAGVQGNVSAETHFRIEMVSKKFEGLKLPQRHRMVYSLLQDEMAQANGICALQLSLKTPQEYESKAK [chain 1 H93C]

Variants of: B7
Assay: Strep-tag affinity purification with MS proteomics (spectral counts); parent: 0; read off a plot

screen value | Variant
~0% | chain 1 MFKRAMSTDGPVARTILKRLECGFPDYKNFAFGLYNDSHKHKGHAGVQGNVSAETHFRIEMVSKKFEGLKLPQRHRMVYSLLQDEMAQANGICALQLSLKTPQEYESKAK [chain 1 H93C]

Variants of: B8
Assay: as above

screen value | Variant
~0% | chain 1 MFKRAMSTDGPVARTILKRLECGFPDYKNFAFGLYNDSHKHKGHAGVQGNVSAETHFRIEMVSKKFEGLKLPQRHRMVYSLLQDEMAQANGICALQLSLKTPQEYESKAK [chain 1 H93C]

Variants of: B9
Assay: Strep-tag affinity purification with MS proteomics (spectral counts); parent: 16; read off a plot

screen value | Variant
~45% | chain 1 H101C
